*1 amine or outer side, *2 acyl side, *3 side chain or, on linkers, in order; H or OH if unused. Where no end group is shown, it is not given here. Side-chain parts run from the residue outwards. [ ]: non-standard residue; d: D form. The star is where a group is joined. d(γGlu) = O=C(O)[C@@H](CCC(=O)[*:2])N[*:1]; C18 diacid = O=C(O)CCCCCCCCCCCCCCCCC(=O)*; C16 diacid = O=C(O)CCCCCCCCCCCCCCC(=O)*; γGlu = O=C(O)[C@H](CCC(=O)[*:2])N[*:1]; Glutaryl = O=C(CCCC(=O)[*:2])[*:1]; Nle = CCCC[C@H](N)C(=O)O; AEEA = NCCOCCOCC(=O)O
T1: human GIP receptor (human, UniProt P48546 22-466)
T1 sequence (looked up): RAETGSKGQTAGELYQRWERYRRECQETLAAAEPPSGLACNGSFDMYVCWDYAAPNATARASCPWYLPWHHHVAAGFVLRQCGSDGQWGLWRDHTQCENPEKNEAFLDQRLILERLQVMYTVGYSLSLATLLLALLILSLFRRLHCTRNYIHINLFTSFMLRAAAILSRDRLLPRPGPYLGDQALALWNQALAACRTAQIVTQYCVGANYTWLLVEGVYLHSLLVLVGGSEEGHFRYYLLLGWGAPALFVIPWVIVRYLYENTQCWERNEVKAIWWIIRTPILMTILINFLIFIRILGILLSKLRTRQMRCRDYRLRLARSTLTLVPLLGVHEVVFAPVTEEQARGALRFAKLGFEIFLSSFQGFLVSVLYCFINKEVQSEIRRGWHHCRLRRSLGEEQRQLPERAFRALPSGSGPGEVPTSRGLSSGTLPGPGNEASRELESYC

B1: AT698 (peptide)
peptide: [d(γGlu)]GTFISDYSIA[Nle]DKIK(C16 diacid)QQDFVEWLLAQKPSSGAPPPS-OH
modifications: N-terminus assumed
SMILES: CCCC[C@H](NC(=O)[C@H](C)NC(=O)[C@@H](NC(=O)[C@H](CO)NC(=O)[C@H](Cc1ccc(O)cc1)NC(=O)[C@H](CC(=O)O)NC(=O)[C@H](CO)NC(=O)[C@@H](NC(=O)[C@H](Cc1ccccc1)NC(=O)[C@@H](NC(=O)CNC(=O)CC[C@@H](N)C(=O)O)[C@@H](C)O)[C@@H](C)CC)[C@@H](C)CC)C(=O)N[C@@H](CC(=O)O)C(=O)N[C@@H](CCCCN)C(=O)N[C@H](C(=O)N[C@@H](CCCCNC(=O)CCCCCCCCCCCCCCC(=O)O)C(=O)N[C@@H](CCC(N)=O)C(=O)N[C@@H](CCC(N)=O)C(=O)N[C@@H](CC(=O)O)C(=O)N[C@@H](Cc1ccccc1)C(=O)N[C@H](C(=O)N[C@@H](CCC(=O)O)C(=O)N[C@@H](Cc1c[nH]c2ccccc12)C(=O)N[C@@H](CC(C)C)C(=O)N[C@@H](CC(C)C)C(=O)N[C@@H](C)C(=O)N[C@@H](CCC(N)=O)C(=O)N[C@@H](CCCCN)C(=O)N1CCC[C@H]1C(=O)N[C@@H](CO)C(=O)N[C@@H](CO)C(=O)NCC(=O)N[C@@H](C)C(=O)N1CCC[C@H]1C(=O)N1CCC[C@H]1C(=O)N1CCC[C@H]1C(=O)N[C@@H](CO)C(=O)O)C(C)C)[C@@H](C)CC
B2: AT420 (peptide)
peptide: SGTFISDYSIAMDKIK([AEEA-AEEA-AEEA-γGlu-C16 diacid])QQDFVNWLLAQKGKKNDW-OH
modifications: N-terminus assumed
SMILES: CC[C@H](C)[C@H](NC(=O)[C@H](CO)NC(=O)[C@H](Cc1ccc(O)cc1)NC(=O)[C@H](CC(=O)O)NC(=O)[C@H](CO)NC(=O)[C@@H](NC(=O)[C@H](Cc1ccccc1)NC(=O)[C@@H](NC(=O)CNC(=O)[C@@H](N)CO)[C@@H](C)O)[C@@H](C)CC)C(=O)N[C@@H](C)C(=O)N[C@@H](CCSC)C(=O)N[C@@H](CC(=O)O)C(=O)N[C@@H](CCCCN)C(=O)N[C@H](C(=O)N[C@@H](CCCCNC(=O)COCCOCCNC(=O)COCCOCCNC(=O)COCCOCCNC(=O)CC[C@H](NC(=O)CCCCCCCCCCCCCCC(=O)O)C(=O)O)C(=O)N[C@@H](CCC(N)=O)C(=O)N[C@@H](CCC(N)=O)C(=O)N[C@@H](CC(=O)O)C(=O)N[C@@H](Cc1ccccc1)C(=O)N[C@H](C(=O)N[C@@H](CC(N)=O)C(=O)N[C@@H](Cc1c[nH]c2ccccc12)C(=O)N[C@@H](CC(C)C)C(=O)N[C@@H](CC(C)C)C(=O)N[C@@H](C)C(=O)N[C@@H](CCC(N)=O)C(=O)N[C@@H](CCCCN)C(=O)NCC(=O)N[C@@H](CCCCN)C(=O)N[C@@H](CCCCN)C(=O)N[C@@H](CC(N)=O)C(=O)N[C@@H](CC(=O)O)C(=O)N[C@@H](Cc1c[nH]c2ccccc12)C(=O)O)C(C)C)[C@@H](C)CC
B3: AT418 (peptide)
peptide: EGTFISDYSIAMDKIK([AEEA-AEEA-AEEA-γGlu-C18 diacid])QQDFVNWLLAQKGKKNDW-OH
modifications: N-terminus assumed
SMILES: CC[C@H](C)[C@H](NC(=O)[C@H](CO)NC(=O)[C@H](Cc1ccc(O)cc1)NC(=O)[C@H](CC(=O)O)NC(=O)[C@H](CO)NC(=O)[C@@H](NC(=O)[C@H](Cc1ccccc1)NC(=O)[C@@H](NC(=O)CNC(=O)[C@@H](N)CCC(=O)O)[C@@H](C)O)[C@@H](C)CC)C(=O)N[C@@H](C)C(=O)N[C@@H](CCSC)C(=O)N[C@@H](CC(=O)O)C(=O)N[C@@H](CCCCN)C(=O)N[C@H](C(=O)N[C@@H](CCCCNC(=O)COCCOCCNC(=O)COCCOCCNC(=O)COCCOCCNC(=O)CC[C@H](NC(=O)CCCCCCCCCCCCCCCCC(=O)O)C(=O)O)C(=O)N[C@@H](CCC(N)=O)C(=O)N[C@@H](CCC(N)=O)C(=O)N[C@@H](CC(=O)O)C(=O)N[C@@H](Cc1ccccc1)C(=O)N[C@H](C(=O)N[C@@H](CC(N)=O)C(=O)N[C@@H](Cc1c[nH]c2ccccc12)C(=O)N[C@@H](CC(C)C)C(=O)N[C@@H](CC(C)C)C(=O)N[C@@H](C)C(=O)N[C@@H](CCC(N)=O)C(=O)N[C@@H](CCCCN)C(=O)NCC(=O)N[C@@H](CCCCN)C(=O)N[C@@H](CCCCN)C(=O)N[C@@H](CC(N)=O)C(=O)N[C@@H](CC(=O)O)C(=O)N[C@@H](Cc1c[nH]c2ccccc12)C(=O)O)C(C)C)[C@@H](C)CC
B4: AT419 (peptide)
peptide: SGTFISDYSIAMDKIK([AEEA-AEEA-γGlu-C16 diacid])QQDFVNWLLAQKGKKNDW-OH
modifications: N-terminus assumed
SMILES: CC[C@H](C)[C@H](NC(=O)[C@H](CO)NC(=O)[C@H](Cc1ccc(O)cc1)NC(=O)[C@H](CC(=O)O)NC(=O)[C@H](CO)NC(=O)[C@@H](NC(=O)[C@H](Cc1ccccc1)NC(=O)[C@@H](NC(=O)CNC(=O)[C@@H](N)CO)[C@@H](C)O)[C@@H](C)CC)C(=O)N[C@@H](C)C(=O)N[C@@H](CCSC)C(=O)N[C@@H](CC(=O)O)C(=O)N[C@@H](CCCCN)C(=O)N[C@H](C(=O)N[C@@H](CCCCNC(=O)COCCOCCNC(=O)COCCOCCNC(=O)CC[C@H](NC(=O)CCCCCCCCCCCCCCC(=O)O)C(=O)O)C(=O)N[C@@H](CCC(N)=O)C(=O)N[C@@H](CCC(N)=O)C(=O)N[C@@H](CC(=O)O)C(=O)N[C@@H](Cc1ccccc1)C(=O)N[C@H](C(=O)N[C@@H](CC(N)=O)C(=O)N[C@@H](Cc1c[nH]c2ccccc12)C(=O)N[C@@H](CC(C)C)C(=O)N[C@@H](CC(C)C)C(=O)N[C@@H](C)C(=O)N[C@@H](CCC(N)=O)C(=O)N[C@@H](CCCCN)C(=O)NCC(=O)N[C@@H](CCCCN)C(=O)N[C@@H](CCCCN)C(=O)N[C@@H](CC(N)=O)C(=O)N[C@@H](CC(=O)O)C(=O)N[C@@H](Cc1c[nH]c2ccccc12)C(=O)O)C(C)C)[C@@H](C)CC
B5: AT367 (peptide)
peptide: TFISDYKIAMDKIHQQDFVNWLLAQKGKKNDWKHN
HELM: PEPTIDE1{T.F.I.S.D.Y.K.I.A.M.D.K.I.H.Q.Q.D.F.V.N.W.L.L.A.Q.K.G.K.K.N.D.W.K.H.N}|PEPTIDE2{[O=C(O)CCCCCCCCCCCCCCC(=O)[*:2]].[gGlu]}$PEPTIDE1,PEPTIDE2,7:R3-2:R2$$$V2.0; N-terminus assumed
SMILES: CC[C@H](C)[C@H](NC(=O)[C@H](CCCCNC(=O)CC[C@H](NC(=O)CCCCCCCCCCCCCCC(=O)O)C(=O)O)NC(=O)[C@H](Cc1ccc(O)cc1)NC(=O)[C@H](CC(=O)O)NC(=O)[C@H](CO)NC(=O)[C@@H](NC(=O)[C@H](Cc1ccccc1)NC(=O)[C@@H](N)[C@@H](C)O)[C@@H](C)CC)C(=O)N[C@@H](C)C(=O)N[C@@H](CCSC)C(=O)N[C@@H](CC(=O)O)C(=O)N[C@@H](CCCCN)C(=O)N[C@H](C(=O)N[C@@H](Cc1c[nH]cn1)C(=O)N[C@@H](CCC(N)=O)C(=O)N[C@@H](CCC(N)=O)C(=O)N[C@@H](CC(=O)O)C(=O)N[C@@H](Cc1ccccc1)C(=O)N[C@H](C(=O)N[C@@H](CC(N)=O)C(=O)N[C@@H](Cc1c[nH]c2ccccc12)C(=O)N[C@@H](CC(C)C)C(=O)N[C@@H](CC(C)C)C(=O)N[C@@H](C)C(=O)N[C@@H](CCC(N)=O)C(=O)N[C@@H](CCCCN)C(=O)NCC(=O)N[C@@H](CCCCN)C(=O)N[C@@H](CCCCN)C(=O)N[C@@H](CC(N)=O)C(=O)N[C@@H](CC(=O)O)C(=O)N[C@@H](Cc1c[nH]c2ccccc12)C(=O)N[C@@H](CCCCN)C(=O)N[C@@H](Cc1c[nH]cn1)C(=O)N[C@@H](CC(N)=O)C(=O)O)C(C)C)[C@@H](C)CC

target: T1, human GIP receptor; assay: cell-based or functional assay

Row | Binder | cAMP agonism % Emax [%] | cAMP antagonism [nM] | cAMP antagonism % inhib [%] | cAMP antagonism pIC50
1 | B1 | 8 | 9.26 | 78 | 8
2 | EGTFISDYSIALDKIKQQDFVNWLLAQKPSSGAPPPS (βGlu at 3; Aib at 13; Nle at 14; K18: C16-diacid; C-term COOH) [AT703] | 0 | 4.3 | 93 | 8.6
3 | Glutaryl-GTFISDYSIA[Nle]DKIK(C16 diacid)QQDFVEWLLAQKPSSGAPPPS-OH [AT700] | 3 | 0.708 | 89 | 9.2
4 | [βGlu]GTFISDYSIA[Nle]DKIK(C16 diacid)QQDFVEWLLAQKPSSGAPPPS-OH [AT699] | 0 | 6.31 | 88 | 8.2
5 | Glutaryl-GTFISDYSIA[Nle]DKIK([AEEA-AEEA-γGlu-C18 diacid])QQDFVEWLLAQKPSSGAPPPS-OH [AT702] | 0 | 3.55 | 85 | 8.5
6 | [βGlu]GTFISDYSIA[Nle]DKIK([AEEA-AEEA-γGlu-C18 diacid])QQDFVEWLLAQKPSSGAPPPS-OH [AT701] | 13 | 12.6 | 63 | 7.9

target: T1, human GIP receptor; assay: cell-based or functional assay; remark: another data set of the same source

Row | Binder | cAMP antagonism [nM] | cAMP antagonism % inhib [%] | cAMP antagonism log [log M] | cAMP agonism Emax
7 | B2 | 237 | 100 | -6.6 | 
8 | B3 | 68 | 95 | -7.2 | 7.8
9 | B4 | 215 | 78 | -6.7 | 4.9
10 | B5 | 6 | 100 | -8.3 | 
